Source: patent US20070275428A1

Key:
Assay in all cases: cell-based or functional assay
[1] = target: IRS-1 phosphorylation domain (PTB peptide), 13 amino acid peptide including Y941 of insulin receptor substrate 1
[2] = target: non-phosphorylable Akt kinase motif … (alanine substitution) of sensor AS1A
[3] = target: Akt kinase motif (AKM) peptide … of sensor AS1T

bioluminescence signal induction, split firefly IRS-1 sensor with (EAAAR)2 linker in CHO-IR cells implanted in nude mice, after insulin (fold induction) [1]	bioluminescence signal induction, split firefly IRS-1 sensor with (EAAAR)2 linker in CHO-IR cells implanted in nude mice, no insulin (fold induction) [1]	complemented FL activity of 293T/AS1A xenografts in nude mice 6 hours after 30 mg/kg perifosine, relative to carrier control treated mice [2]	complemented FL activity of untreated 293T/AS1A cells relative to untreated 293T/AS1T cells [2]	FL activity of AS1T in 293T cells treated with PDGF for 30 minutes, relative to carrier control [3]	complemented FL activity of 293T/AS1T xenografts in nude mice 6 hours after 30 mg/kg perifosine, relative to carrier control treated mice [3]	complemented FL activity of AS1T in BT474 cells treated with the PI-3K inhibitor LY294002 for 24 hours, relative to carrier control [3]	maximum induction of complemented FL activity of AS1T in response to LY294002 [3]	Substance
5	1.3	–	–	–	–	–	–	SH2 domain of PI3 Kinase (substrate recognition domain) (from UniProt P27986 330-433)
–	–	20 % decrease	10 fold	60 % decrease	60 % increase	1.3 fold	4 fold	yeast phosphothreonine FHA2 binding domain (from UniProt P22216 601-664)
